According to the supplement of paper PMC7125110:
± gives the standard error. For part of these data: Variants at the floor of the assay were thinned out.

B1: glmS ribozyme (parent)
chain: AUAAAAGCGCCAGAACUACAGAAAUGUAGUUGACGAGGAGGAGGUUUAUCGAAUUUUCGGCGGAUGCCUCCAAA

Columns and labels:
Details in all cases: with glucosamine-6-phosphate
glucosamine-6-phosphate [1] = variants of: B1; assay: kcat; higher = faster cleavage; RNA array
In short: (§1)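 Barcoded glmS ribozyme variants on sequenced MiSeq chips were transcribed in situ by E. coli RNA polymerase and tracked through a hybridised Cy3 probe at 37 °C. Glucosamine-6-phosphate (40 μM to 10 mM) in HEPES/KCl/Mg(OAc)2 buffer was flowed in, and tiles were imaged over ~14 h. Signals were normalised to baseline and to non-cleaving reference variants; per-tile medians were fit to one- or two-exponential decays to give kobs. kcat and KM came from weighted Michaelis–Menten fits across concentrations.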

glucosamine-6-phosphate [2] = variants of: B1; assay: KM; higher = weaker cofactor use; RNA array
In short: as §1

glucosamine-6-phosphate [3] = variants of: B1; assay: self-cleavage kobs at 160 uM GlcN6P; higher = faster cleavage; RNA array
In short: as §1

glucosamine-6-phosphate [4] = variants of: B1; assay: self-cleavage kobs at 640 uM GlcN6P; higher = faster cleavage; RNA array
In short: as §1

glucosamine-6-phosphate [5] = variants of: B1; assay: self-cleavage kobs at 2500 uM GlcN6P; higher = faster cleavage; RNA array
In short: as §1

glucosamine-6-phosphate [6] = variants of: B1; assay: self-cleavage kobs at 10000 uM GlcN6P; higher = faster cleavage; RNA array
In short: as §1

glucosamine-6-phosphate [7] = variants of: B1; assay: self-cleavage kobs at 40 uM GlcN6P; higher = faster cleavage; RNA array
In short: as §1

| Variant | kcat (glucosamine-6-phosphate [1]) | KM (glucosamine-6-phosphate [2]) | self-cleavage kobs at 160 uM GlcN6P (glucosamine-6-phosphate [3]) | self-cleavage kobs at 640 uM GlcN6P (glucosamine-6-phosphate [4]) | self-cleavage kobs at 2500 uM GlcN6P (glucosamine-6-phosphate [5]) | self-cleavage kobs at 10000 uM GlcN6P (glucosamine-6-phosphate [6]) | self-cleavage kobs at 40 uM GlcN6P (glucosamine-6-phosphate [7]) |
| --- | --- | --- | --- | --- | --- | --- | --- |
| A52G C71G | 0.00014 ± 1.4e-05 s⁻¹ | 431 ± 170 µM | 4.09e-05 ± 1.4e-05 s⁻¹ | 7.87e-05 ± 1.1e-05 s⁻¹ | 0.000157 ± 2.2e-05 s⁻¹ | 0.000127 ± 1.2e-05 s⁻¹ |  |
| C11U U47C | 8.97e-05 ± 5.3e-06 s⁻¹ | 1150 ± 290 µM |  | 4.05e-05 ± 1.7e-05 s⁻¹ | 5.91e-05 ± 8.5e-06 s⁻¹ | 8.15e-05 ± 8.5e-06 s⁻¹ |  |
| A14G A33G | < 1e-05 s⁻¹ |  | < 1e-05 s⁻¹ |  | < 1e-05 s⁻¹ | < 1e-05 s⁻¹ | < 1e-05 s⁻¹ |
| G29U G41C | 4.75e-05 ± 1.3e-05 s⁻¹ |  |  |  |  | 3.1e-05 ± 9e-06 s⁻¹ |  |
| A15G C16U | 0.00689 ± 0.0016 s⁻¹ | 876 ± 320 µM | 0.000875 ± 0.00017 s⁻¹ | 0.00277 ± 0.00047 s⁻¹ | 0.00432 ± 0.00071 s⁻¹ | 0.00798 ± 0.0011 s⁻¹ | 0.000403 ± 5.8e-05 s⁻¹ |
| U30C C58G | 2e-05 ± 1.6e-06 s⁻¹ |  |  | < 1e-05 s⁻¹ |  |  |  |
| U56A U69A | 9.71e-05 ± 1.6e-05 s⁻¹ |  | 5e-05 ± 1.3e-05 s⁻¹ | 8.46e-05 ± 1.2e-05 s⁻¹ | 0.000155 ± 2.3e-05 s⁻¹ | 8.66e-05 ± 1.1e-05 s⁻¹ | 4e-05 ± 1.1e-05 s⁻¹ |
| G9U A39U C61A | 0.000456 ± 2.3e-05 s⁻¹ | 503 ± 58 µM | 0.000118 ± 4.8e-05 s⁻¹ | 0.000243 ± 6.2e-05 s⁻¹ | 0.000376 ± 0.00013 s⁻¹ | 0.00046 ± 0.00017 s⁻¹ |  |
| G51A G59U | < 1e-05 s⁻¹ | 157 ± 36 µM |  | < 1e-05 s⁻¹ |  |  | < 1e-05 s⁻¹ |
| U56A U57G | 0.000127 ± 3.4e-05 s⁻¹ |  |  | 3.45e-05 ± 1.3e-05 s⁻¹ | 4.92e-05 ± 1e-05 s⁻¹ | 0.000102 ± 2e-05 s⁻¹ |  |
| G13C C67U | 4.46e-05 ± 7.3e-06 s⁻¹ |  |  |  | 4.34e-05 ± 1.3e-05 s⁻¹ | 4.04e-05 ± 7.8e-06 s⁻¹ |  |
| G59A A64G | 9.06e-05 ± 1.3e-05 s⁻¹ |  |  |  | 6.66e-05 ± 2.7e-05 s⁻¹ | 7.67e-05 ± 1.6e-05 s⁻¹ | < 1e-05 s⁻¹ |
| U54C G62C | < 1e-05 s⁻¹ | 133 ± 48 µM | < 1e-05 s⁻¹ | < 1e-05 s⁻¹ | < 1e-05 s⁻¹ |  | < 1e-05 s⁻¹ |
| A42G A53U | 0.0339 ± 0.012 s⁻¹ | 2240 ± 990 µM | 0.00186 ± 0.00035 s⁻¹ | 0.0076 ± 0.0013 s⁻¹ | 0.0159 ± 0.0028 s⁻¹ | 0.0373 ± 0.009 s⁻¹ | 0.000764 ± 0.00011 s⁻¹ |
| A6U U31G | 8.41e-05 ± 1e-05 s⁻¹ |  |  |  | 7.42e-05 ± 1.9e-05 s⁻¹ | 7.27e-05 ± 1.2e-05 s⁻¹ | < 1e-05 s⁻¹ |
| A6C C71G | 1.2e-05 ± 1.5e-06 s⁻¹ |  |  |  |  |  | < 1e-05 s⁻¹ |
| C50U C71G | 3.46e-05 ± 1.4e-05 s⁻¹ |  |  | 4.43e-05 ± 1e-05 s⁻¹ |  |  |  |
| A52C C67U | 1.21e-05 ± 4.7e-06 s⁻¹ |  |  |  |  |  |  |

| Variant | kcat (glucosamine-6-phosphate [1]) | KM (glucosamine-6-phosphate [2]) | self-cleavage kobs at 160 uM GlcN6P (glucosamine-6-phosphate [3]) | self-cleavage kobs at 640 uM GlcN6P (glucosamine-6-phosphate [4]) | self-cleavage kobs at 2500 uM GlcN6P (glucosamine-6-phosphate [5]) | self-cleavage kobs at 10000 uM GlcN6P (glucosamine-6-phosphate [6]) | self-cleavage kobs at 40 uM GlcN6P (glucosamine-6-phosphate [7]) |
| --- | --- | --- | --- | --- | --- | --- | --- |
| U30G U56A | 0.00811 ± 0.0019 s⁻¹ | 2730 ± 850 µM | 0.000498 ± 0.0001 s⁻¹ | 0.00146 ± 0.00024 s⁻¹ | 0.003 ± 0.00057 s⁻¹ | 0.00771 ± 0.0011 s⁻¹ | 0.000125 ± 1.6e-05 s⁻¹ |
| A12C U47A | 0.011 ± 0.0034 s⁻¹ | 1620 ± 740 µM | 0.00131 ± 0.00027 s⁻¹ | 0.00346 ± 0.00056 s⁻¹ | 0.00529 ± 0.00087 s⁻¹ | 0.014 ± 0.0025 s⁻¹ | 0.000246 ± 4.3e-05 s⁻¹ |
| C34G C70G | 1.99e-05 ± 6.6e-07 s⁻¹ | 234 ± 89 µM |  |  |  |  |  |
| A6C C10U C67G U69A | 2.09e-05 ± 8.6e-06 s⁻¹ |  |  |  |  |  |  |
| A12G A42U | 4.92e-05 ± 2.6e-06 s⁻¹ |  |  |  |  | 1.63e-05 ± 6.6e-06 s⁻¹ |  |
| A6U U65G | 3.43e-05 ± 1e-05 s⁻¹ |  |  |  | 4.32e-05 ± 1.3e-05 s⁻¹ |  | < 1e-05 s⁻¹ |
| A39G A53G | 0.0916 ± 0.024 s⁻¹ | 2770 ± 830 µM | 0.00433 ± 0.00068 s⁻¹ | 0.0194 ± 0.0037 s⁻¹ | 0.0404 ± 0.015 s⁻¹ | 0.0725 ± 0.019 s⁻¹ | 0.0015 ± 0.00022 s⁻¹ |
| A42U U65G C68A | 2.17e-05 ± 1.1e-05 s⁻¹ |  | < 1e-05 s⁻¹ |  |  |  |  |
| G59U C61G | < 1e-05 s⁻¹ |  |  |  |  | < 1e-05 s⁻¹ |  |
| U49G C70A | 1.52e-05 ± 2.5e-06 s⁻¹ |  |  |  |  |  |  |
| G41A U55G | 0.000144 ± 2.3e-05 s⁻¹ |  | 5.67e-05 ± 1.5e-05 s⁻¹ | 0.000142 ± 3.9e-05 s⁻¹ | 0.000107 ± 1.9e-05 s⁻¹ | 0.000179 ± 2.9e-05 s⁻¹ |  |
| A12C U57C | 0.000312 ± 5.1e-05 s⁻¹ | 4850 ± 1600 µM |  | 4.73e-05 ± 1.2e-05 s⁻¹ | 9.32e-05 ± 1.7e-05 s⁻¹ | 0.000214 ± 2.2e-05 s⁻¹ |  |
| G29A U54G | 0.00345 ± 0.00074 s⁻¹ | 2790 ± 830 µM | 0.000165 ± 2.7e-05 s⁻¹ | 0.000767 ± 0.00012 s⁻¹ | 0.00138 ± 0.00023 s⁻¹ | 0.00293 ± 0.00042 s⁻¹ | 5.97e-05 ± 1.1e-05 s⁻¹ |
| G38C A52G | < 1e-05 s⁻¹ | 30.9 ± 14 µM | < 1e-05 s⁻¹ |  | < 1e-05 s⁻¹ | < 1e-05 s⁻¹ |  |
| U54A U57C | 0.000159 ± 5.5e-06 s⁻¹ | 2020 ± 160 µM |  | 3.98e-05 ± 1e-05 s⁻¹ | 8.52e-05 ± 1.3e-05 s⁻¹ | 0.000134 ± 2.1e-05 s⁻¹ |  |
| G44U U56G | 0.00018 ± 3.5e-05 s⁻¹ | 3010 ± 1100 µM |  | 3.67e-05 ± 1.1e-05 s⁻¹ | 6.96e-05 ± 1.9e-05 s⁻¹ | 0.00015 ± 3.7e-05 s⁻¹ |  |
| G29A C67G | 0.00016 ± 1.6e-05 s⁻¹ | 1710 ± 390 µM |  | 4.67e-05 ± 1e-05 s⁻¹ | 8.59e-05 ± 1.7e-05 s⁻¹ | 0.000145 ± 2.5e-05 s⁻¹ |  |
